Key:
[1] = target: phosphorylated SARS-CoV-2 Nucleocapsid protein (pN) (SARS-CoV-2) (UniProt P0DTC9); assay: […]
[2] = target: SARS-CoV-2 Nucleocapsid protein (N), unmodified (SARS-CoV-2) (UniProt P0DTC9); assay: […]

Work on “6xHis-GFP-Nsp3^1–111 (ubiquitin-like domain 1 of SARS-CoV-2 Nsp3) (domain or fragment)” yielded a partition coefficient [1] of 2.2 and a partition coefficient [2] of 12.6.
In the case of “6xHis-GFP-M^104–222 (C-terminal endodomain of the SARS-CoV-2 Membrane protein) (from UniProt P0DTC5 104-222) (domain or fragment)”, the partition coefficient [1] is reported as 0.3 and the partition coefficient [2] is reported as 9.8.
